T1: A3C1C2 subunit of factor VIII (human, UniProt P00451 1709-2351)
T1 sequence: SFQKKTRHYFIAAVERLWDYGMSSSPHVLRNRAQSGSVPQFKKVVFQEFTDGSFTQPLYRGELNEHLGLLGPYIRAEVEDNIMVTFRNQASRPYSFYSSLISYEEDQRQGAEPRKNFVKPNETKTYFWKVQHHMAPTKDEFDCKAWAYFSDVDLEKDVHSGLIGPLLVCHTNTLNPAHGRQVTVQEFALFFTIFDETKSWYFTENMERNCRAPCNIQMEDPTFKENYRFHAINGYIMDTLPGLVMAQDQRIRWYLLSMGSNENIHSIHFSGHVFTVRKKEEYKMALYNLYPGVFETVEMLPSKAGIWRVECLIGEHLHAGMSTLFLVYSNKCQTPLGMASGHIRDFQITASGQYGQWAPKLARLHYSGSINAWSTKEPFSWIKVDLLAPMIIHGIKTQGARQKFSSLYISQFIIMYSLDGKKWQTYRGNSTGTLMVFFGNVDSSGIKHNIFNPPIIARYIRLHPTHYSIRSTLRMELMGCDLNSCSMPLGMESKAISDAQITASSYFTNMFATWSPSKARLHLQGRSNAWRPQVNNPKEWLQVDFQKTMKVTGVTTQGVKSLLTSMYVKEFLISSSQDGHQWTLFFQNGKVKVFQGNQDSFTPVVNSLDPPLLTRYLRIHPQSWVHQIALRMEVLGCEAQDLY


Tests used:
[1] = biological target: T1, A3C1C2 subunit of factor VIII; assay: cell-based or functional assay
[2] = biological target: T1, A3C1C2 subunit of factor VIII; assay: fluorescence titration of acrylodan-labeled A1 (15 nM) with A3C1C2 (0-300 nM), pH 7.4, quadratic fit
Protocol: (§1) Purified A1 subunit from WT and Ala108Ile factor VIII was labeled with acrylodan by sulfhydryl specific protein modification as previously described (Wakabayashi et al., “Metal Ion-independent Association of Factor VIII Subunits and the Roles of Calcium and Copper Ions for Cofactor Activity and Inter-subunit Affinity,” Biochemistry 40:10293-10300 (2001), which is hereby incorporated by reference in its entirety). A1 (15 nM) from WT or Ala108Ile factor VIII was reconstituted with A3C1C2 subunit (0-300 nM) at 37° C. for 2 h in buffer B at pH 7.4. Fluorescence measurements were performed using an Aminco-Bowman Series 2 Luminescence Spectrometer (Thermo Spectronic, Rochester, N.Y.) at 23° C. at an excitation wavelength of 395 nm (2 nm bandwidth). Fluorescence emission was monitored at 480-490 nm (8 nm bandwidth) and all spectra were corrected for background. Data were fitted to a quadratic equation by non-linear least squares regression and parameter values were obtained.
(§2) To assess the affinity of the Ala108Ile A1 domain for C2 domain, the purified factor VIII variant and WT were treated with thrombin and the A1 subunits were separately purified as described supra. A1 subunits were then reacted with the environment-sensitive fluorescent probe, acrylodan, and these reagents were used to probe binding with the A3C1C2 subunit. […]

[3] = biological target: T1, A3C1C2 subunit of factor VIII; assay: changes in fluorescence of acrylodan labeled-A1 subunits
Protocol: as §1, §2

[4] = biological target: T1, A3C1C2 subunit of factor VIII; assay: fluorescence titration of acrylodan-labeled A1 with A3C1C2
Protocol: as §1, §2

| fold reduction of decay rate against WT A1 [1] | Kd [2] | fold increase in binding affinity against WT [3] | fold increase in affinity against WT A1 [4] | Binder |
| --- | --- | --- | --- | --- |
| 4.6 fold |  |  |  | A1 subunit from Ala108Ile factor VIII (other) ATRRYYLGAVELSWDYMQSDLGELPVDARFPPRVPKSFPFNTSVVYKKTLFVEFTVHLFNIAKPRPPWMGLLGPTIQAEVYDTVVITLKNMASHPVSLHAVGVSYWKISEGAEYDDQTSQREKEDDKVFPGGSHTYVWQVLKENGPMASDPLCLTYSYLSHVDLVKDLNSGLIGALLVCREGSLAKEKTQTLHKFILLFAVFDEGKSWHSETKNSLMQDRDAASARAWPKMHTVNGYVNRSLPGLIGCHRKSVYWHVIGMGTTPEVHSIFLEGHTFLVRNHRQASLEISPITFLTAQTLLMDLGQFLLFCHISSHQHDGMEAYVKVDSCPEEPQLRMKNNEEAEDYDDDLTDSEMDVVRFDDDNSPSFIQIR |
|  | 88.7 nM |  |  | acrylodan-labeled A1 subunit from WT factor VIII (other, acrylodan on a free thiol, likely Cys310, A1 subunit purified from thrombin-cleaved, EDTA-treated recombinant B-domainless WT factor VIII (BHK cells), then labelled with acrylodan; also called AcA1 (WT); WT A1 subunit) ATRRYYLGAVELSWDYMQSDLGELPVDARFPPRVPKSFPFNTSVVYKKTLFVEFTVHLFNIAKPRPPWMGLLGPTIQAEVYDTVVITLKNMASHPVSLHAVGVSYWKASEGAEYDDQTSQREKEDDKVFPGGSHTYVWQVLKENGPMASDPLCLTYSYLSHVDLVKDLNSGLIGALLVCREGSLAKEKTQTLHKFILLFAVFDEGKSWHSETKNSLMQDRDAASARAWPKMHTVNGYVNRSLPGLIGCHRKSVYWHVIGMGTTPEVHSIFLEGHTFLVRNHRQASLEISPITFLTAQTLLMDLGQFLLFCHISSHQHDGMEAYVKVDSCPEEPQLRMKNNEEAEDYDDDLTDSEMDVVRFDDDNSPSFIQIR |
|  | 24.1 nM | ~3.7 fold | ~4 fold | acrylodan-labeled A1 subunit from Ala108Ile factor VIII (other, acrylodan on a free thiol, likely Cys310, A1 subunit purified from thrombin-cleaved, EDTA-treated B-domainless Ala108Ile factor VIII, then labelled with acrylodan; also called AcA1 (Ala108Ile); Ala108Ile A1) ATRRYYLGAVELSWDYMQSDLGELPVDARFPPRVPKSFPFNTSVVYKKTLFVEFTVHLFNIAKPRPPWMGLLGPTIQAEVYDTVVITLKNMASHPVSLHAVGVSYWKISEGAEYDDQTSQREKEDDKVFPGGSHTYVWQVLKENGPMASDPLCLTYSYLSHVDLVKDLNSGLIGALLVCREGSLAKEKTQTLHKFILLFAVFDEGKSWHSETKNSLMQDRDAASARAWPKMHTVNGYVNRSLPGLIGCHRKSVYWHVIGMGTTPEVHSIFLEGHTFLVRNHRQASLEISPITFLTAQTLLMDLGQFLLFCHISSHQHDGMEAYVKVDSCPEEPQLRMKNNEEAEDYDDDLTDSEMDVVRFDDDNSPSFIQIR |

Reference: patent US20120065136A1 (UNIVERSITY OF ROCHESTER, published 2012)
